Holding throughout (test): cell-based or functional assay
The target of test [1] is Humira (Abbvie), human IgG1.
Test [2] has as its target XGEVA (Amgen), human IgG2.
Test [3] deals with human IgG3 from Sigma (15654 Lot #SLBW0899) (human).
In test [4] the target is XGEVA (Amgen), human IgG2. This is another data set of the same source.
The target of test [5] is human IgG4 from Abcam (ab90286 Lot #GR3180469) (human).
The target of test [6] is Humira (Abbvie), human IgG1. This is another data set of the same source.

Numbering of substitutions follows the chain as printed.

B1: pCART207, a variant IdeZ polypeptide (enzyme)
chain: MDDYQRNATEAYAKEVPHQITSVWTKGVTPPEQFTQGEDVIHAPYLAHQGWYDITKAFDGKDNLLCGAATAGNMLHWWFDQNKTEIEAYLSKHPEKQKIIFRNQELFDLKAAIDTKDSQTNSQLFNYFRDKAFPNLSARQLGVMPDLVLDMFINGYYLNVFKTQSTDVNRPYQDKDKRGGIFDAVFTRGDQTTLLTARHDLKNKGLNDISTIIKQELTEGRALALSHTYANVSISHVINLWGADFNAEGNLEAIYVTDSDANASIGMKKYFVGINAHGHVAISAKKIEGENIGAQVLGLFTLSSGKDIWQKLS
With B1, in test [1], the “Approximate EC50 value, i.e. equal amounts of scIgG and F(ab')2 (SDS-PAGE)” value (“Approximate EC50 value” below) was around 0.04 µg/mL; the “Conc. of enzyme for cleavage of 1st IgG1 heavy chain, IgG to scIgG (SDS-PAGE)” value was around 1.5 ng/mL; the “Conc. of enzyme for cleavage of 2nd IgG1 heavy chain, scIgG to F(ab')2 (SDS-PAGE)” value (“Conc. of enzyme … to F(ab')2 (SDS-PAGE)” for short) was around 120 ng/mL. Besides, in test [2], the “Approximate EC50 value” value was around 1.1 µg/mL; the “Conc. of enzyme for cleavage of 1st IgG2 heavy chain, IgG to scIgG (SDS-PAGE)” value is around 40 ng/mL; the “Conc. of enzyme for cleavage of 2nd IgG2 heavy chain, scIgG to F(ab)2 (SDS-PAGE)” value (“Conc. of enzyme … to F(ab)2 (SDS-PAGE)” below) was around 3300 ng/mL.

B2: pCART229, a variant IdeZ polypeptide (enzyme)
chain: B1 chain with D190N
As to B2, in test [1], the “Approximate EC50 value” value was around 0.04 µg/mL; the “Conc. of enzyme for cleavage of 1st IgG1 heavy chain, IgG to scIgG (SDS-PAGE)” value is around 1.5 ng/mL; the “Conc. of enzyme … to F(ab')2 (SDS-PAGE)” value was around 120 ng/mL. Besides, in test [2], the “Approximate EC50 value” value was around 1.1 µg/mL; the “Conc. of enzyme for cleavage of 1st IgG2 heavy chain, IgG to scIgG (SDS-PAGE)” value was around 40 ng/mL; the “Conc. of enzyme … to F(ab)2 (SDS-PAGE)” value is around 3300 ng/mL.

B3: N240, a variant IdeZ polypeptide of the invention (enzyme)
chain: B1 chain with D59N, N63D, D190N
On to B3, for which, in test [3], the “IgG3 EC50 F(ab')2 (SDS-PAGE, visual estimate)” value was 0.015 µg/mL and the “IgG3 EC50 scIgG (SDS-PAGE, visual estimate)” value is 0.007 µg/mL. In test [4], the “IgG2 EC50 F(ab')2 (SDS-PAGE, visual estimate)” value is 0.12 µg/mL and the “IgG2 EC50 scIgG (SDS-PAGE, visual estimate)” value is 0.0046 µg/mL. In test [5], the “IgG4 EC50 F(ab')2 (SDS-PAGE, visual estimate)” value was 0.062 µg/mL and the “IgG4 EC50 scIgG (SDS-PAGE, visual estimate)” value is 0.002 µg/mL. Also, in test [6], the “IgG1 EC50 F(ab')2 (SDS-PAGE, visual estimate)” value is 0.014 µg/mL and the “IgG1 EC50 scIgG (SDS-PAGE, visual estimate)” value was 0.0005 µg/mL.

B4: pCART242, a variant IdeZ polypeptide of the invention (enzyme)
chain: MSVWTKGVTPPEQFTQGEDVIHAPYLAHQGWYDITKAFNGKDDLLCGAATAGNMLHWWFDQNKTEIEAYLSKHPEKQKIIFRNQELFDLKAAIDTKDSQTNSQLFNYFRDKAFPNLSARQLGVMPDLVLDMFINGYYLNVFKTQSTDVNRPYQDKDKRGGIFDAVFTRGNQTTLLTARHDLKNKGLNDISTIIKQELTEGRALALSHTYANVSISHVINLWGADFNAEGNLEAIYVTDSDANASIGMKKYFVGINAHGHVAISAKKIEGENIGAQVLGLFTLSSGKDIWQKLSGGGHHHHHH
Turning to B4, in test [1], the “Conc. of enzyme for cleavage of 1st IgG1 heavy chain, IgG to scIgG (SDS-PAGE)” value is around 1.5 ng/mL and the “Conc. of enzyme … to F(ab')2 (SDS-PAGE)” value is around 40 ng/mL. For the same molecule, in test [2], the “Conc. of enzyme for cleavage of 1st IgG2 heavy chain, IgG to scIgG (SDS-PAGE)” value is around 10 ng/mL and the “Conc. of enzyme … to F(ab)2 (SDS-PAGE)” value is around 400 ng/mL.

The values above are taken from patent publication US20260028608A1 (HANSA BIOPHARMA, published 2026).
